The RNAGym collection of RNA variant scans (doi:10.1093/molbev/msab373)

B1: Azoarcus group I ribozyme (parent)
chain: GUGCCUUGCGCCGGGAAACCACGCAAGGGAUGGUGUCAAAUUCGGCGAAACCUAAGCGCCCGCCCGGGCGUAUGGCAACGCCGAGCCAAGCUUCGGCGCCUGCGCCGAUGAAGGUGUAGAGACUAGACGGCACCCACCUAAGGCAAACGCUAUGGUGAAGGCAUAGUCCAGGGAGUGGCGAAAGUCACACAAACCGG

Variants of: B1
Test: reverse-splicing fitness (ratio to wild type); higher = more active; in vitro selection; Mg2+ level not given
How it was run: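 An in vitro group I ribozyme library with randomized positions was T7-transcribed and gel-purified. In triplicate, 10 pmol RNA in EPPS pH 7.5 was reacted with 50 pmoles of a 30-nt RNA substrate for 1 h at 37 °C across several added MgCl2 levels (1–48 mM), then stopped with EDTA. Products were reverse transcribed from a substrate-complementary primer, PCR-amplified and sequenced (HiSeq 4000). Fitness is a variant's read proportion after selection over that before, normalised to wild type.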

First: GUGCCUUGCGCCGGGAAACCACGCAAGGGAUGGUGUCAAAUUCGGCGAAACCUAAGCGCCCGCCCGGGCGUAUGGCAACGCGGAGCCAAGCUUCGGCGCCUGCGCCGAUGGAGGUGUAGUGACUAGACGGCACCCACCUAAGGCCAACGUUAUGGUGAAGGCAUAGUCAAGGGAGCGGCGAAAGUCACACAAACCGG
Second: GUGCCUUGCGCCGGGAAACCACGCAAGGGAUGGUGUCAAAUUCGGCGAAACCUAAGCGCCCGCCCGGGCGUAUGGCAACGCGGAGCCAAGCUUCGGCGCCUGCGCCGAUGGAGGUGUAGUGACUAGACGGCACCCACCUAAGGCCAACGUUAUGGUGAAGGCAUAGUCAAGGGAGGGGCGAAAGUCACACAAACCGG
The reverse-splicing fitness of the first is lower: 0.00184 for the first, 0.00197 for the second.

First: GUGCCUUGCGCCGGGAAACCACGCAAGGGAUGGUGUCAAAUUCGGCGAAACCUAAGCGCCCGCCCGGGCGUAUGGCAACGCGGAGCCAAGCUUCGGCGCCUGCGCCGAUGGAGGUGUAGUGACUAGACGGCACCCACCUAAGGCCAACGUUAUGGUGAAGGCAUAGUCAAGGGAGAGGCGAAAGUCACACAAACCGG
Second: GUGCCUUGCGCCGGGAAACCACGCAAGGGAUGGUGUCAAAUUCGGCGAAACCUAAGCGCCCGCCCGGGCGUAUGGCAACGCGGAGCCAAGCUUCGGCGCCUGCGCCGAUGGAGGUGUAGUGACUAGACGGCACCCACCUAAGGCCAACGAUAUGGUGAAGGCAUAGUCCAGGGAGAGGCGAAAGUCACACAAACCGG
The reverse-splicing fitness of the first is higher: 0.00272 for the first, 0.00245 for the second.

Going from GUGCCUUGCGCCGGGAAACCACGCAAGGGAUGGUGUCAAAUUCGGCGAAACCUAAGCGCCCGCCCGGGCGUAUGGCAACGCGGAGCCAAGCUUCGGCGCCUGCGCCGAUGGAGGUGUAGUGACUAGACGGCACCCACCUAAGGCCAACGAUAUGGUGAAGGCAUAGUCCAGGGAGCGGCGAAAGUCACACAAACCGG to GUGCCUUGCGCCGGGAAACCACGCAAGGGAUGGUGUCAAAUUCGGCGAAACCUAAGCGCCCGCCCGGGCGUAUGGCAACGCGGAGCCAAGCUUCGGCGCCUGCGCCGAUGGAGGUGUAGUGACUAGACGGCACCCACCUAAGGCCAACGAUAUGGUGAAGGCAUAGUCCAGGGAGGGGCGAAAGUCACACAAACCGG, the reverse-splicing fitness falls from 0.00344 to 0.00169.

First: GUGCCUUGCGCCGGGAAACCACGCAAGGGAUGGUGUCAAAUUCGGCGAAACCUAAGCGCCCGCCCGGGCGUAUGGCAACGCGGAGCCAAGCUUCGGCGCCUGCGCCGAUGGAGGUGUAGUGACUAGACGGCACCCACCUAAGGCCAACGGUAUGGUGAAGGCAUAGUCAAGGGAGCGGCGAAAGUCACACAAACCGG
Second: GUGCCUUGCGCCGGGAAACCACGCAAGGGAUGGUGUCAAAUUCGGCGAAACCUAAGCGCCCGCCCGGGCGUAUGGCAACGCGGAGCCAAGCUUCGGCGCCUGCGCCGAUGGAGGUGUAGUGACUAGACGGCACCCACCUAAGGCCAACGGUAUGGUGAAGGCAUAGUCAAGGGAGGGGCGAAAGUCACACAAACCGG
The reverse-splicing fitness of the first is higher: 0.00236 for the first, 0.00183 for the second.

Compared with GUGCCUUGCGCCGGGAAACCACGCAAGGGAUGGUGUCAAAUUCGGCGAAACCUAAGCGCCCGCCCGGGCGUAUGGCAACGCGGAGCCAAGCUUCGGCGCCUGCGCCGAUGGAGGUGUAGUGACUAGACGGCACCCACCUAAGGCCAACGGUAUGGUGAAGGCAUAGUCAAGGGAGAGGCGAAAGUCACACAAACCGG, GUGCCUUGCGCCGGGAAACCACGCAAGGGAUGGUGUCAAAUUCGGCGAAACCUAAGCGCCCGCCCGGGCGUAUGGCAACGCGGAGCCAAGCUUCGGCGCCUGCGCCGAUGGAGGUGUAGUGACUAGACGGCACCCACCUAAGGCCAACGGUAUGGUGAAGGCAUAGUCGAGGGAGAGGCGAAAGUCACACAAACCGG is higher in reverse-splicing fitness: 0.00237 for the first, 0.00278 for the second.

Compared with GUGCCUUGCGCCGGGAAACCACGCAAGGGAUGGUGUCAAAUUCGGCGAAACCUAAGCGCCCGCCCGGGCGUAUGGCAACGCGGAGCCAAGCUUCGGCGCCUGCGCCGAUGGAGGUGUAGUGACUAGACGGCACCCACCUAAGGCCAACGGUAUGGUGAAGGCAUAGUCGAGGGAGGGGCGAAAGUCACACAAACCGG, GUGCCUUGCGCCGGGAAACCACGCAAGGGAUGGUGUCAAAUUCGGCGAAACCUAAGCGCCCGCCCGGGCGUAUGGCAACGCGGAGCCAAGCUUCGGCGCCUGCGCCGAUGGAGGUGUAGUGACUAGACGGCACCCACCUAAGGCCAACGGUAUGGUGAAGGCAUAGUCGAGGGAGCGGCGAAAGUCACACAAACCGG is higher in reverse-splicing fitness: 0.00196 for the first, 0.00228 for the second.

Going from GUGCCUUGCGCCGGGAAACCACGCAAGGGAUGGUGUCAAAUUCGGCGAAACCUAAGCGCCCGCCCGGGCGUAUGGCAACGCGGAGCCAAGCUUCGGCGCCUGCGCCGAUGGAGGUGUAGUGACUAGACGGCACCCACCUAAGGCCAACGUUAUGGUGAAGGCAUAGUCCAGGGAGUGGCGAAAGUCACACAAACCGG to GUGCCUUGCGCCGGGAAACCACGCAAGGGAUGGUGUCAAAUUCGGCGAAACCUAAGCGCCCGCCCGGGCGUAUGGCAACGCGGAGCCAAGCUUCGGCGCCUGCGCCGAUGGAGGUGUAGUGACUAGACGGCACCCACCUAAGGCCAACGGUAUGGUGAAGGCAUAGUCCAGGGAGUGGCGAAAGUCACACAAACCGG, the reverse-splicing fitness falls from 0.0153 to 0.00878.

Going from GUGCCUUGCGCCGGGAAACCACGCAAGGGAUGGUGUCAAAUUCGGCGAAACCUAAGCGCCCGCCCGGGCGUAUGGCAACGCGGAGCCAAGCUUCGGCGCCUGCGCCGAUGGAGGUGUAGUGACUAGACGGCACCCACCUAAGGCCAACGGUAUGGUGAAGGCAUAGUCCAGGGAGCGGCGAAAGUCACACAAACCGG to GUGCCUUGCGCCGGGAAACCACGCAAGGGAUGGUGUCAAAUUCGGCGAAACCUAAGCGCCCGCCCGGGCGUAUGGCAACGCGGAGCCAAGCUUCGGCGCCUGCGCCGAUGGAGGUGUAGUGACUAGACGGCACCCACCUAAGGCCAACGGUAUGGUGAAGGCAUAGUCCAGGGAGAGGCGAAAGUCACACAAACCGG, the reverse-splicing fitness falls from 0.00396 to 0.00327.

First: GUGCCUUGCGCCGGGAAACCACGCAAGGGAUGGUGUCAAAUUCGGCGAAACCUAAGCGCCCGCCCGGGCGUAUGGCAACGCGGAGCCAAGCUUCGGCGCCUGCGCCGAUGGAGGUGUAGUGACUAGACGGCACCCACCUAAGGCCAACGGUAUGGUGAAGGCAUAGUCCAGGGAGGGGCGAAAGUCACACAAACCGG
Second: GUGCCUUGCGCCGGGAAACCACGCAAGGGAUGGUGUCAAAUUCGGCGAAACCUAAGCGCCCGCCCGGGCGUAUGGCAACGCGGAGCCAAGCUUCGGCGCCUGCGCCGAUGGAGGUGUAGUGACUAGACGGCACCCACCUAAGGCCAACGAUAUGGUGAAGGCAUAGUCGAGGGAGGGGCGAAAGUCACACAAACCGG
The reverse-splicing fitness of the first is higher: 0.00247 for the first, 0.0019 for the second.

First: GUGCCUUGCGCCGGGAAACCACGCAAGGGAUGGUGUCAAAUUCGGCGAAACCUAAGCGCCCGCCCGGGCGUAUGGCAACGCGGAGCCAAGCUUCGGCGCCUGCGCCGAUGGAGGUGUAGUGACUAGACGGCACCCACCUAAGGCCAACGAUAUGGUGAAGGCAUAGUCUAGGGAGUGGCGAAAGUCACACAAACCGG
Second: GUGCCUUGCGCCGGGAAACCACGCAAGGGAUGGUGUCAAAUUCGGCGAAACCUAAGCGCCCGCCCGGGCGUAUGGCAACGCGGAGCCAAGCUUCGGCGCCUGCGCCGAUGGAGGUGUAGUGACUAGACGGCACCCACCUAAGGCCAACGUUAUGGUGAAGGCAUAGUCAAGGGAGUGGCGAAAGUCACACAAACCGG
The reverse-splicing fitness of the first is higher: 0.00246 for the first, 0.00231 for the second.

Going from GUGCCUUGCGCCGGGAAACCACGCAAGGGAUGGUGUCAAAUUCGGCGAAACCUAAGCGCCCGCCCGGGCGUAUGGCAACGCGGAGCCAAGCUUCGGCGCCUGCGCCGAUGGAGGUGUAGUGACUAGACGGCACCCACCUAAGGCCAACGUUAUGGUGAAGGCAUAGUCGAGGGAGUGGCGAAAGUCACACAAACCGG to GUGCCUUGCGCCGGGAAACCACGCAAGGGAUGGUGUCAAAUUCGGCGAAACCUAAGCGCCCGCCCGGGCGUAUGGCAACGCGGAGCCAAGCUUCGGCGCCUGCGCCGAUGGAGGUGUAGUGACUAGACGGCACCCACCUAAGGCCAACGGUAUGGUGAAGGCAUAGUCUAGGGAGAGGCGAAAGUCACACAAACCGG, the reverse-splicing fitness rises from 0.00281 to 0.00286.

First: GUGCCUUGCGCCGGGAAACCACGCAAGGGAUGGUGUCAAAUUCGGCGAAACCUAAGCGCCCGCCCGGGCGUAUGGCAACGCGGAGCCAAGCUUCGGCGCCUGCGCCGAUGGAGGUGUAGUGACUAGACGGCACCCACCUAAGGCCAACGGUAUGGUGAAGGCAUAGUCUAGGGAGCGGCGAAAGUCACACAAACCGG
Second: GUGCCUUGCGCCGGGAAACCACGCAAGGGAUGGUGUCAAAUUCGGCGAAACCUAAGCGCCCGCCCGGGCGUAUGGCAACGCGGAGCCAAGCUUCGGCGCCUGCGCCGAUGGAGGUGUAGUGACUAGACGGCACCCACCUAAGGCCAACGGUAUGGUGAAGGCAUAGUCUAGGGAGGGGCGAAAGUCACACAAACCGG
The reverse-splicing fitness of the first is higher: 0.00238 for the first, 0.00221 for the second.

Going from GUGCCUUGCGCCGGGAAACCACGCAAGGGAUGGUGUCAAAUUCGGCGAAACCUAAGCGCCCGCCCGGGCGUAUGGCAACGCGGAGCCAAGCUUCGGCGCCUGCGCCGAUGGAGGUGUAGUGACUAGACGGCACCCACCUAAGGCCAACGAUAUGGUGAAGGCAUAGUCUAGGGAGCGGCGAAAGUCACACAAACCGG to GUGCCUUGCGCCGGGAAACCACGCAAGGGAUGGUGUCAAAUUCGGCGAAACCUAAGCGCCCGCCCGGGCGUAUGGCAACGCGGAGCCAAGCUUCGGCGCCUGCGCCGAUGGAGGUGUAGUGACUAGACGGCACCCACCUAAGGCCAACGAUAUGGUGAAGGCAUAGUCUAGGGAGAGGCGAAAGUCACACAAACCGG, the reverse-splicing fitness rises from 0.00238 to 0.00266.

Compared with GUGCCUUGCGCCGGGAAACCACGCAAGGGAUGGUGUCAAAUUCGGCGAAACCUAAGCGCCCGCCCGGGCGUAUGGCAACGCGGAGCCAAGCUUCGGCGCCUGCGCCGAUGGAGGUGUAGUGACUAGACGGCACCCACCUAAGGCCAACGAUAUGGUGAAGGCAUAGUCUAGGGAGGGGCGAAAGUCACACAAACCGG, GUGCCUUGCGCCGGGAAACCACGCAAGGGAUGGUGUCAAAUUCGGCGAAACCUAAGCGCCCGCCCGGGCGUAUGGCAACGCGGAGCCAAGCUUCGGCGCCUGCGCCGAUGGAGGUGUAGUGACUAGACGGCACCCACCUAAGGCCAACGGUAUGGUGAAGGCAUAGUCUAGGGAGUGGCGAAAGUCACACAAACCGG is higher in reverse-splicing fitness: 0.0019 for the first, 0.00296 for the second.

First: GUGCCUUGCGCCGGGAAACCACGCAAGGGAUGGUGUCAAAUUCGGCGAAACCUAAGCGCCCGCCCGGGCGUAUGGCAACGCGGAGCCAAGCUUCGGCGCCUGCGCCGAUGGAGGUGUAGUGACUAGACGGCACCCACCUAAGGCCAACGGUAUGGUGAAGGCAUAGUCAAGGGAGUGGCGAAAGUCACACAAACCGG
Second: GUGCCUUGCGCCGGGAAACCACGCAAGGGAUGGUGUCAAAUUCGGCGAAACCUAAGCGCCCGCCCGGGCGUAUGGCAACGCGGAGCCAAGCUUCGGCGCCUGCGCCGAUGGAGGUGUAGUGACUAGACGGCACCCACCUAAGGCCAACGGUAUGGUGAAGGCAUAGUCGAGGGAGUGGCGAAAGUCACACAAACCGG
The reverse-splicing fitness of the first is lower: 0.00256 for the first, 0.0027 for the second.
